This note sets out measurements from US5773001 (American Cyanamid Company, dated 1998).

Assay [1] deals with CD33 antigen (human) (UniProt P20138).
For assay [2] the target is unchanged. The assay is described as follows: competition with 125I-labelled native antibody on HEL 92.1.7 cells; IC50 (reference) / IC50 (sample).
The target is the same in assay [3]. This is another data set of the same source.
The target is the same in assay [4]. This is another data set of the same source.
Assay [5] shares this target. The source holds these as a separate data set.
For assay [6] the target is unchanged. This is another data set of the same source.
For assay [7] the target is unchanged. This is another data set of the same source.
The target is the same in assay [8]. This is another data set of the same source.
Assay [9] has the same target. This is another data set of the same source.
Assay [10] has the same target. This is another data set of the same source.
Assay [11] has the same target. The source holds these as a separate data set.

Like-named read-outs stand apart in the source and are kept apart here.

For the substance “Conjugate of 4-(2-acetyl-1-naphthalenyl)oxy! butanoic acid (20) condensed with Calicheamicin N-acetyl gamma dimethyl hydrazide and m-P67.6 (antibody)”, in the assay with CD33 antigen (human) [1], the In vitro IC50 (3H-thymidine incorporation) was determined as 0.0067 ng/mL. In the assay with CD33 antigen (human) [2], the Rel. Affinity amounted to 0.66.
In the assay with CD33 antigen (human) [3], “Conjugate of 4-4-(3-oxopropyl)phenoxy!butanoic acid (18) condensed with Calicheamicin N-acetyl gamma dimethyl hydrazide and m-P67.6 (antibody)” came in with an In vitro IC50 (3H-thymidine incorporation) of 0.62 ng/mL. Moreover, in the assay with CD33 antigen (human) [2], the Rel. Affinity amounted to 1.21.
For “Conjugate of 4-(4-acetyl-2-methoxyphenoxy)butanoic acid (15) condensed with Calicheamicin N-acetyl gamma dimethyl hydrazide and m-P67.6 (antibody)”, the In vitro IC50 (3H-thymidine incorporation) in the assay with CD33 antigen (human) [4] was 0.029 ng/mL. Moreover, the Rel. Affinity in the assay with CD33 antigen (human) [2] was found to be 0.8.
With “Conjugate of 4-(2,3-Dimethoxy-5-formylphenoxy)butanoic acid (13) condensed with Calicheamicin N-acetyl gamma dimethyl hydrazide and m-P67.6 (antibody)”, the In vitro IC50 (3H-thymidine incorporation) in the assay with CD33 antigen (human) [5] stood at 0.062 ng/mL. The substance also came in with a Rel. Affinity with CD33 antigen (human) [2] of 1.08.
“Conjugate of 5-acetyl-2-(3-carboxypropoxy)benzoic acid (26), methyl ester condensed with Calicheamicin N-acetyl gamma dimethyl hydrazide and h-P67.6 (antibody)” registered an In vitro IC50 (3H-thymidine incorporation) with CD33 antigen (human) [6] of under 0.005 ng/mL. Moreover, the Rel. Affinity with CD33 antigen (human) [2] amounted to 0.79.
As to “Conjugate of 4-(4-acetyl-2,6-dimethoxyphenoxy)butanoic acid (14) condensed with Calicheamicin N-acetyl gamma dimethyl hydrazide and m-P67.6 (antibody)”, the In vitro IC50 (3H-thymidine incorporation) with CD33 antigen (human) [7] came out at 0.015 ng/mL. This substance also displayed a Rel. Affinity with CD33 antigen (human) [2] of 1.18.
In the case of “Conjugate of 11-(4-acetylphenoxy)undecanoic acid (23) condensed with Calicheamicin N-acetyl gamma dimethyl hydrazide and m-P67.6 (antibody)”, the In vitro IC50 (3H-thymidine incorporation) with CD33 antigen (human) [8] came out at 0.47 ng/mL. In addition, the Rel. Affinity with CD33 antigen (human) [2] came to 1.16.
“Conjugate of 4-4-(3-oxobutyl)phenoxy!butanoic acid (16) condensed with Calicheamicin N-acetyl gamma dimethyl hydrazide and m-P67.6 (antibody)” registered an In vitro IC50 (3H-thymidine incorporation) with CD33 antigen (human) [9] of 9 ng/mL.
Turning to “Conjugate of 5-(4-acetylphenyl)amino!-5-oxopentanoic acid (24) condensed with Calicheamicin N-acetyl gamma dimethyl hydrazide and m-P67.6 (antibody)”, the In vitro IC50 (3H-thymidine incorporation) with CD33 antigen (human) [10] is under 0.005 ng/mL. In addition, in the assay with CD33 antigen (human) [2], the Rel. Affinity was determined as 0.73.
For the substance “Conjugate of 4-(2-acetyl-5-methoxyphenoxy!butanoic acid (17) condensed with Calicheamicin N-acetyl gamma dimethyl hydrazide and m-P67.6 (antibody)”, the In vitro IC50 (3H-thymidine incorporation) with CD33 antigen (human) [11] is 0.0098 ng/mL. The same substance returned a Rel. Affinity with CD33 antigen (human) [2] of 1.2.
